Key:
Assay in all cases: Kinase Profiling Assay
Assay type in all cases: biochemical
Settings in all cases: 100 μM
[1] = biological target: PKCθ (h) (Homo sapiens, UniProt Q04759)
Method in brief: (§1)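 Radiometric filter-binding format: cationic substrate takes up labeled phosphate from ATP unless the inhibitor peptide blocks the kinase. Substrate bound to an anionic filter, scintillation-counted, normalized to 100% activity control. Duplicates; part of a 266-kinase selectivity panel for MK2 peptides.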

[2] = biological target: AMPKα1 (h) (Homo sapiens, UniProt Q13131)
Sequence of AMPKα1 (h) (Q13131 whole entry): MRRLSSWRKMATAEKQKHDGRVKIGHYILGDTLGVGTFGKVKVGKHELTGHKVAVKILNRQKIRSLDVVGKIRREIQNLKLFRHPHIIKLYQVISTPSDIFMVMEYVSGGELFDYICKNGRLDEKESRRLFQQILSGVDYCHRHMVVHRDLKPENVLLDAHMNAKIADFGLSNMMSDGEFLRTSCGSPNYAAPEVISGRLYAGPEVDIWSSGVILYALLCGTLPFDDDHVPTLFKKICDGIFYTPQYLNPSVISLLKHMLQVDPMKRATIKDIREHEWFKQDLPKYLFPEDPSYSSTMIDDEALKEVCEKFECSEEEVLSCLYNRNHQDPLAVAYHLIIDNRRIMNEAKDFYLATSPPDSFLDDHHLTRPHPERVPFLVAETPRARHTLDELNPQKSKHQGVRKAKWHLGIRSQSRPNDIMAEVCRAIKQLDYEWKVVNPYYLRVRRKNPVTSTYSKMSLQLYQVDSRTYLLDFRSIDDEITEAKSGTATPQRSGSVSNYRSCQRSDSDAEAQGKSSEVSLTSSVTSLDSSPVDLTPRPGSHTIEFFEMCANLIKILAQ
Sequence of AMPKα1 (h) (Q9Y478 whole entry partner): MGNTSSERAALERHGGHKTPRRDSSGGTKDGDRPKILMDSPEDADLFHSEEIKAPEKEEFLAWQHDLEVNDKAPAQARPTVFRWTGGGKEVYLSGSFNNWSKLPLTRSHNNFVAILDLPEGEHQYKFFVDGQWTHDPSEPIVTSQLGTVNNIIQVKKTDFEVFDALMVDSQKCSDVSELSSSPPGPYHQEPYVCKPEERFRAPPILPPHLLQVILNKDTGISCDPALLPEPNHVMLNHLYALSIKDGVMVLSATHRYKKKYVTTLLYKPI
Sequence of AMPKα1 (h) (P54619 whole entry partner): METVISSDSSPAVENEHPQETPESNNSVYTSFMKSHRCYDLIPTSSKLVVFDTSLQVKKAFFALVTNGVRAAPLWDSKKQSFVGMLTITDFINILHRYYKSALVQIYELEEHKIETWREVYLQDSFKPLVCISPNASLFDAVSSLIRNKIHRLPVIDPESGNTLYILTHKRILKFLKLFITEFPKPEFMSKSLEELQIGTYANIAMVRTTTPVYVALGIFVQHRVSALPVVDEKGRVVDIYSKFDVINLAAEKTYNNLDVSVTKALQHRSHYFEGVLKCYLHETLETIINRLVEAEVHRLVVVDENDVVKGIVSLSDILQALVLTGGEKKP
Method in brief: as §1

[3] = biological target: T1, PKG1β (h) (Homo sapiens, UniProt Q13976)
T1 sequence (Q13976 1-686 isoform Q13976-2): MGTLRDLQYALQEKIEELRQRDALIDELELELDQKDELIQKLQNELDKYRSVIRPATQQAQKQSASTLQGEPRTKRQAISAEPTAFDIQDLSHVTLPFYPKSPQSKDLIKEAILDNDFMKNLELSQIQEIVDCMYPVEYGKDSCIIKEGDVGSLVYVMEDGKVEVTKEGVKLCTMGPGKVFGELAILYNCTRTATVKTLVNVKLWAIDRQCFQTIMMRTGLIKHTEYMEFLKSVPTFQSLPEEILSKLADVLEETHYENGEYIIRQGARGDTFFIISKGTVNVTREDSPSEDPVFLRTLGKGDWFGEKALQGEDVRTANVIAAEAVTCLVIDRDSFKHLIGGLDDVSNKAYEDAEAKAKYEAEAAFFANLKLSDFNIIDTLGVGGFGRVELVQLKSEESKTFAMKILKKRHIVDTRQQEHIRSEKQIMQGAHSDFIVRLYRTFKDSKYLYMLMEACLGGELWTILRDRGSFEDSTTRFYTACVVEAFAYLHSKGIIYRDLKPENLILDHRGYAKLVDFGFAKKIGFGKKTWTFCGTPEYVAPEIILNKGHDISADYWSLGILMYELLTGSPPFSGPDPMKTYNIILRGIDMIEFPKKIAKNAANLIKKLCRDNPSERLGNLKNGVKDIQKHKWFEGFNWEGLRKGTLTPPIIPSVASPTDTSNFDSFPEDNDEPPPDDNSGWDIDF
Method in brief: as §1

[4] = biological target: T2, MuSK (h) (Homo sapiens, UniProt O15146)
T2 construct: purchased Millipore
T2 sequence (O15146 24-869): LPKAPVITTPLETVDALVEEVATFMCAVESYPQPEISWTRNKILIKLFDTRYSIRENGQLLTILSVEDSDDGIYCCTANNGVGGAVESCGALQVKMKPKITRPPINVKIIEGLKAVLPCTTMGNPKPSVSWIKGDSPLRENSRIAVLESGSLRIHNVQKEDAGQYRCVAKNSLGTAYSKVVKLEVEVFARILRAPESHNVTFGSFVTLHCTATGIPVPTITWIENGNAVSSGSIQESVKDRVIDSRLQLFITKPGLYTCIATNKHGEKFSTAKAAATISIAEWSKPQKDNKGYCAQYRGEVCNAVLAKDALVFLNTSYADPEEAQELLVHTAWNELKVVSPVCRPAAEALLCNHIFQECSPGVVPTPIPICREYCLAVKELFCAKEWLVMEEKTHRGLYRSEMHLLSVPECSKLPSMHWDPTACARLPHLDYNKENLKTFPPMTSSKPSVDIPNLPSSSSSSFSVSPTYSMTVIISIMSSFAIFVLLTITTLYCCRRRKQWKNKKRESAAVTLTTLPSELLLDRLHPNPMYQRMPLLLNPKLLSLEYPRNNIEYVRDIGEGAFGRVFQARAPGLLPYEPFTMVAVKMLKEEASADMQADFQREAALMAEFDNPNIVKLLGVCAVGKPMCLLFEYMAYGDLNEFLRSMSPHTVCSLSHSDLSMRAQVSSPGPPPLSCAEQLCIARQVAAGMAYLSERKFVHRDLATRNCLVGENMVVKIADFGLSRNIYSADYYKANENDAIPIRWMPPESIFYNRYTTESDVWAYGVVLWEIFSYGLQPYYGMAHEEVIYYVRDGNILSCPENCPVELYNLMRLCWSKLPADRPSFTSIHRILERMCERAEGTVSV
Method in brief: as §1

[5] = biological target: T3, EphA2 (h) (Homo sapiens, UniProt P29317)
T3 construct: purchased Millipore
Method in brief: as §1

[6] = biological target: T4, cSRC (h) (Homo sapiens, UniProt P12931)
T4 construct: purchased Millipore
Method in brief: as §1

[7] = biological target: Met (h) (Homo sapiens, UniProt P08581)
Sequence of Met (h) (P08581 25-1390): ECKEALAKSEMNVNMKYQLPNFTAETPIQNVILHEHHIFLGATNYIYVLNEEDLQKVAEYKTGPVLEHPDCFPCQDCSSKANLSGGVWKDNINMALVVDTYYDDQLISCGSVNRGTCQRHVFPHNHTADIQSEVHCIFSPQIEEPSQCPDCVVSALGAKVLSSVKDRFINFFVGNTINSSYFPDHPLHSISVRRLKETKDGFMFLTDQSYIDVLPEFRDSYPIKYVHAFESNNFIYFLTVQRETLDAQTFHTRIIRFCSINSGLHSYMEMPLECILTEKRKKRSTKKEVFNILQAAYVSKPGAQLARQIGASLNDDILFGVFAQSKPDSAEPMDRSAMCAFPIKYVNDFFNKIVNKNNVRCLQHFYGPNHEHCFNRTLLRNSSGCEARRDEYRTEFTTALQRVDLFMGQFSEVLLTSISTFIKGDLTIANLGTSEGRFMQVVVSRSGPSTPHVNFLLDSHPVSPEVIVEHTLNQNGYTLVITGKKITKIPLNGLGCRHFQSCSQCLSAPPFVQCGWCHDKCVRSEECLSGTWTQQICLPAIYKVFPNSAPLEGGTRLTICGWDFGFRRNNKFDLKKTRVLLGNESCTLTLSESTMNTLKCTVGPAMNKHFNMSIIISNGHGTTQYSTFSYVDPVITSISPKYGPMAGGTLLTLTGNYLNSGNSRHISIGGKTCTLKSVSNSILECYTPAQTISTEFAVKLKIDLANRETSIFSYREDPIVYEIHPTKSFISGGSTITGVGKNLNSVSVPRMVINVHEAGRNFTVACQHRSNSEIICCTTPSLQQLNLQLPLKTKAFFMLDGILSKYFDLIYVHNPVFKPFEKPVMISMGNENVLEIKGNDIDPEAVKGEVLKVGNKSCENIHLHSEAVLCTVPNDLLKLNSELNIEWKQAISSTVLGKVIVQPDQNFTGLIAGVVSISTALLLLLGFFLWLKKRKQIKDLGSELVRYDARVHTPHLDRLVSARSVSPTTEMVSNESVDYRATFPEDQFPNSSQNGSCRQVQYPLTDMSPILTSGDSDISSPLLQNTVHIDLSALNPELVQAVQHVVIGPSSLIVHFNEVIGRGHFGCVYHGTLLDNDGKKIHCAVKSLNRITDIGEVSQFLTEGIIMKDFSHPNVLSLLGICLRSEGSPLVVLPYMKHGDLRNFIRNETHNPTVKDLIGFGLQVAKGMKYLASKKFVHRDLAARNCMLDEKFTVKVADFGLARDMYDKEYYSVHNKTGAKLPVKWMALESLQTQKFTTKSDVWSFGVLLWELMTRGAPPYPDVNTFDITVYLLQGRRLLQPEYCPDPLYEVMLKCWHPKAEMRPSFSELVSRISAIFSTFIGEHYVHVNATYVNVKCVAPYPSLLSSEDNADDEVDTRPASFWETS
Method in brief: as §1

[8] = biological target: Fgr (h) (Homo sapiens, UniProt P09769)
Method in brief: as §1

[9] = biological target: TrkA (h) (Homo sapiens, UniProt P04629)
Sequence of TrkA (h) (P04629 33-796): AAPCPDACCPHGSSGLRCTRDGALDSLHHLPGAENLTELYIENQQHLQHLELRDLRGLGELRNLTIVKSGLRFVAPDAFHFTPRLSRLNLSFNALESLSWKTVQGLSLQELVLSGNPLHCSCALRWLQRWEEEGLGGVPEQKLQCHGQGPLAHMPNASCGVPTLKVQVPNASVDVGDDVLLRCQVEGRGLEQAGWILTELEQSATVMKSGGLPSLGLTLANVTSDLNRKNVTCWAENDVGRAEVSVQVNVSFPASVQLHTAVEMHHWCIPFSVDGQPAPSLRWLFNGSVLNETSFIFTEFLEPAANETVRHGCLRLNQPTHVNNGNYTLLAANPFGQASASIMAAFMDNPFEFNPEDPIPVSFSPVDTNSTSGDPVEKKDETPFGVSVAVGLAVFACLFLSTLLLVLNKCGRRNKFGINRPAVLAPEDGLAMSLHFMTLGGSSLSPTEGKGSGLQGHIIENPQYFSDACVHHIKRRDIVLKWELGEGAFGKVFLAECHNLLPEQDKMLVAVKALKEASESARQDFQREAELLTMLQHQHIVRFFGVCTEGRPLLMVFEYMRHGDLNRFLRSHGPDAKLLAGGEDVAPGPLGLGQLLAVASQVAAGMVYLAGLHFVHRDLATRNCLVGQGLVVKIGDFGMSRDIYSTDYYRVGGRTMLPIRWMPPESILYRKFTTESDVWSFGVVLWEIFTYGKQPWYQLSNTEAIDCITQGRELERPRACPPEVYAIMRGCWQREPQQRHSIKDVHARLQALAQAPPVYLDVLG
Method in brief: as §1

[10] = biological target: T5, Bmx (h) (Homo sapiens, UniProt P51813)
T5 sequence (P51813 1-675): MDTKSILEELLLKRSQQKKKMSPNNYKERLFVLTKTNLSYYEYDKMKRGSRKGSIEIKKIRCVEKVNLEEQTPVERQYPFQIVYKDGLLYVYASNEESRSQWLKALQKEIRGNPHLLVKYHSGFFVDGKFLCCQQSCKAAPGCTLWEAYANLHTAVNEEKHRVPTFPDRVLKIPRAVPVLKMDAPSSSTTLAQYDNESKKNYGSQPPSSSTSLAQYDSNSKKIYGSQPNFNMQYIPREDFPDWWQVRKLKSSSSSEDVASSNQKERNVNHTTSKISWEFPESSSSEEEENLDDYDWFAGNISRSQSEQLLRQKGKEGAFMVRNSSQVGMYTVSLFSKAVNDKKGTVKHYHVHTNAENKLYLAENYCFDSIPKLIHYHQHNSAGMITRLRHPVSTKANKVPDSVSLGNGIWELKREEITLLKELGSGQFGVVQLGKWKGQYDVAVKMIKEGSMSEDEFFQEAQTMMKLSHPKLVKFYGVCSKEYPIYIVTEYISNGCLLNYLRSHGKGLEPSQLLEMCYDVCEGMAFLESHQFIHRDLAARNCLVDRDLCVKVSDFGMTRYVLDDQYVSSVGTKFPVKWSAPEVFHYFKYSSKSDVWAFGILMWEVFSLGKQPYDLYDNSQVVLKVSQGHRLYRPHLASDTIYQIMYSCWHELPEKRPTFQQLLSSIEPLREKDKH
Method in brief: as §1

[11] = biological target: SRPK2 (h) (Homo sapiens, UniProt P78362)
Sequence of SRPK2 (h) (P78362 whole entry): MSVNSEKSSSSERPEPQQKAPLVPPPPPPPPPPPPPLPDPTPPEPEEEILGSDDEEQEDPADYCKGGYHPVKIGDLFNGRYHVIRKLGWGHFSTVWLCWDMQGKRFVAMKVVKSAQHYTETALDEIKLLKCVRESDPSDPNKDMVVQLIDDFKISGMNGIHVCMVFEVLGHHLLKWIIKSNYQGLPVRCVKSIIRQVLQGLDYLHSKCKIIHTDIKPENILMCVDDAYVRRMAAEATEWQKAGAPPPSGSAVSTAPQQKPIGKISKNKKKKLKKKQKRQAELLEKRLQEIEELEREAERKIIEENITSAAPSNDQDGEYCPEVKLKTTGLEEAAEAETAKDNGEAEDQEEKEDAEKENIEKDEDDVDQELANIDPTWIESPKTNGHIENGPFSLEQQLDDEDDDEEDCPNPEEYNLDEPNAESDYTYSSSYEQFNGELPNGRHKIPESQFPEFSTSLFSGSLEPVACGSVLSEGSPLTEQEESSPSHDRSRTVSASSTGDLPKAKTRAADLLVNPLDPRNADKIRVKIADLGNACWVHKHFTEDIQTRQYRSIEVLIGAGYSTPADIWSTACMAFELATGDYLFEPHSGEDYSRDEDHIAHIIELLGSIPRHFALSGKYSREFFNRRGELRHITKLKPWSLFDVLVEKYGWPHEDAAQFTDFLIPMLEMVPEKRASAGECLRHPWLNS
Method in brief: as §1

Sequence of PKCθ (h) (Q04759 whole entry): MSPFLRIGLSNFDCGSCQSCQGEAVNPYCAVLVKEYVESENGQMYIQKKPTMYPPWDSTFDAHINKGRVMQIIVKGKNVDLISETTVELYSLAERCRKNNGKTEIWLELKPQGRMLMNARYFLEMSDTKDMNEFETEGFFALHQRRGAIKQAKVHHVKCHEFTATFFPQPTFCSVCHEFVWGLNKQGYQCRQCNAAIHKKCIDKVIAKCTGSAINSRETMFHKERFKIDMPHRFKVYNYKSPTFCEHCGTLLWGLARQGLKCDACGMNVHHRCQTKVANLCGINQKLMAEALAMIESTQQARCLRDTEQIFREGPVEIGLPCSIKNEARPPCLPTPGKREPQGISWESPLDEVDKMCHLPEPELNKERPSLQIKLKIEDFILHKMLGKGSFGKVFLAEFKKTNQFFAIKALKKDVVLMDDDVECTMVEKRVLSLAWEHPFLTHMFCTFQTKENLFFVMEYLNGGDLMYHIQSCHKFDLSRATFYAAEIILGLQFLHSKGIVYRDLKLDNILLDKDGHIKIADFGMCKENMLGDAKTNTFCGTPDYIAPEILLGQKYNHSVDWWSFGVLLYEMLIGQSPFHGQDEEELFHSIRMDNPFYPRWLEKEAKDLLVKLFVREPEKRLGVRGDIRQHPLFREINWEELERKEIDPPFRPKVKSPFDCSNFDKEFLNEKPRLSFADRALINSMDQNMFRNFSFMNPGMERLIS

Row | Sequence | % activity [1] [%] | % activity [2] [%] | % activity [3] [%] | % activity [4] [%] | % activity [5] [%] | % activity [6] [%] | % activity [7] [%] | % activity [8] [%] | % activity [9] [%] | % activity [10] [%] | % activity [11] [%]
1 | FAKLAARLYRKALARQLGVAA [MMI-0300] | 88 | 71 | 50 | 93 | 31 | 26 | 65 | 60 | 25 |  | 
2 | HRRIKAWLKKIKALARQLGVAA (Mammalian) [MMI-0500] | 62 | 35 | 24 | 27 |  | 30 | 27 |  | 24 | 45 | 80
3 | KAFAKLAARLYRKALARQLGVAA [MMI-0400] | 76 | 87 | 53 | 93 | 17 | 14 | 62 | 47 | 17 | 26 | 97
4 | YARAAARQARAKALNRQLGVA (Mammalian) [MMI-0200] | 101 | 108 | 57 |  | 95 | 32 | 71 | 71 |  | 76 | 100
